[ ]: non-standard residue; d: D form. 8x polyethylene glycol‑amino = O-(8x polyethylene glycol-amino)-tyrosine, SITE 45; 9x polyethylene glycol‑azido = O-(9x polyethylene glycol-azido)-tyrosine, SITE 42; Ygp = O-(8x polyethylene glycol-amino)-tyrosine (Tyr, amino-capped PEG8); Yn3 = O-(9x polyethylene glycol-azido)-tyrosine (Tyr, azide-capped PEG9); hSer = N[C@@H](CCO)C(=O)O; Nle = CCCC[C@H](N)C(=O)O
T1: IL-2 receptor βγ complex (human, UniProt P14784 27-551; P31785 23-369)
T1 sequence (looked up) 1: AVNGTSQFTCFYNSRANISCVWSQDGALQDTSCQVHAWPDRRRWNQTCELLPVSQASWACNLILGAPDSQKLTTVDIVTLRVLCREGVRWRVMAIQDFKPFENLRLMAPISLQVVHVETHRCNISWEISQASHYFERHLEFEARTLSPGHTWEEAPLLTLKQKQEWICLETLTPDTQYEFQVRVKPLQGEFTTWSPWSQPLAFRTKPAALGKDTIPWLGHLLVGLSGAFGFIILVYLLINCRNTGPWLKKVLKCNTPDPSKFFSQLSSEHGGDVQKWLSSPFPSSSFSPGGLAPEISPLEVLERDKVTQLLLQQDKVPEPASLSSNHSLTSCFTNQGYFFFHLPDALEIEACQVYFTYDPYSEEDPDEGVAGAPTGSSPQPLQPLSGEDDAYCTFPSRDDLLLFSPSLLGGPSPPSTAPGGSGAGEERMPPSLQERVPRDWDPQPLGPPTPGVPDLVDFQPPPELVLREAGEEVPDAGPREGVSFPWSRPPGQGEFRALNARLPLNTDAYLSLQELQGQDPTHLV
T1 sequence (looked up) 2: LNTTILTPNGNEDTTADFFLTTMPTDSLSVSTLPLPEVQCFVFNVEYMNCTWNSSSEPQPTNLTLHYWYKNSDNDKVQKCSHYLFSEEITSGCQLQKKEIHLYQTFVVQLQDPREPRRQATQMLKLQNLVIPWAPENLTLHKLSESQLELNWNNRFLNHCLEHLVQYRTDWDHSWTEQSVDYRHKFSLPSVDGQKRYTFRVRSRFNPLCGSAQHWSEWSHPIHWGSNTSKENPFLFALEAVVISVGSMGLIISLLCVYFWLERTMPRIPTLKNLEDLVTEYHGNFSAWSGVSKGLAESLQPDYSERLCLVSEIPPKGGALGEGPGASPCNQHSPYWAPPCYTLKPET

B1: CMP-314, uPa cleaved molecule (ligand)
chain: APTSSSTKKTQLQLEHLLLDLQKILNGINNYKNPKLTR[Nle]L[hSer]Y(9x polyethylene glycol‑azido)KFY(8x polyethylene glycol‑amino)[Nle]PKKATELKHLQCLEEELKPLEEVL[hSer]LAQSKNFHLRPRDLISNINVIVLELKGSETTF[hSer]CEYADETATIVEFLNRWITFSQSIISTLT
modifications: also: uPa cleavage product, not given here as a sequence, Lys23 side-chain attachment remnant unknown
B2: CMP-311, Matriptase cleaved molecule (ligand)
chain: APTSSSTKKTQLQLEHLLLDLQKILNGINNYKNPKLTR[Nle]L[hSer][Yn3]KF[Ygp][Nle]PKKATELKHLQCLEEELKPLEEVL[hSer]LAQSKNFHLRPRDLISNINVIVLELKGSETTF[hSer]CEYADETATIVEFLNRWITFSQSIISTLT
modifications: also: m77 after matriptase cleavage: Lys23 side-chain branch (cleavable peptide) cut, remnant not given here
B3: CMP-315, MMP2 cleaved molecule (ligand)
chain: APTSSSTKKTQLQLEHLLLDLQKILNGINNYKNPKLTR[Nle]L[hSer]Y(9x polyethylene glycol‑azido)KFY(8x polyethylene glycol‑amino)[Nle]PKKATELKHLQCLEEELKPLEEVL[hSer]LAQSKNFHLRPRDLISNINVIVLELKGSETTF[hSer]CEYADETATIVEFLNRWITFSQSIISTLT
modifications: also: K23 side chain attached to another sequence, m89 after MMP2 cleavage, product not given here as a sequence
B4: CMP-310, MMP2 cleaved molecule (ligand)
chain: APTSSSTKKTQLQLEHLLLDLQKILNGINNYKNPKLTR[Nle]L[hSer][Yn3]KF[Ygp][Nle]PKKATELKHLQCLEEELKPLEEVL[hSer]LAQSKNFHLRPRDLISNINVIVLELKGSETTF[hSer]CEYADETATIVEFLNRWITFSQSIISTLT
modifications: also: m73 after MMP2 cleavage: Lys23 side-chain branch (cleavable peptide) cut, remnant not given here
B5: CMP-310, uPa cleaved molecule (ligand)
chain: APTSSSTKKTQLQLEHLLLDLQKILNGINNYKNPKLTR[Nle]L[hSer][Yn3]KF[Ygp][Nle]PKKATELKHLQCLEEELKPLEEVL[hSer]LAQSKNFHLRPRDLISNINVIVLELKGSETTF[hSer]CEYADETATIVEFLNRWITFSQSIISTLT
modifications: also: m73 after uPa cleavage: Lys23 side-chain branch (cleavable peptide) cut, remnant not given here
B6: CMP-313, uPa cleaved molecule (ligand)
chain: APTSSSTKKTQLQLEHLLLDLQKILNGINNYKNPKLTR[Nle]L[hSer]Y(9x polyethylene glycol‑azido)KFY(8x polyethylene glycol‑amino)[Nle]PKKATELKHLQCLEEELKPLEEVL[hSer]LAQSKNFHLRPRDLISNINVIVLELKGSETTF[hSer]CEYADETATIVEFLNRWITFSQSIISTLT
modifications: also: K23 side chain attached to another sequence, m81 after uPa cleavage, product not given here as a sequence
B7: CMP-311, uPa cleaved molecule (ligand)
chain: APTSSSTKKTQLQLEHLLLDLQKILNGINNYKNPKLTR[Nle]L[hSer][Yn3]KF[Ygp][Nle]PKKATELKHLQCLEEELKPLEEVL[hSer]LAQSKNFHLRPRDLISNINVIVLELKGSETTF[hSer]CEYADETATIVEFLNRWITFSQSIISTLT
modifications: also: m77 after uPa cleavage: Lys23 side-chain branch (cleavable peptide) cut, remnant not given here
B8: CMP-310, Matriptase cleaved molecule (ligand)
chain: APTSSSTKKTQLQLEHLLLDLQKILNGINNYKNPKLTR[Nle]L[hSer][Yn3]KF[Ygp][Nle]PKKATELKHLQCLEEELKPLEEVL[hSer]LAQSKNFHLRPRDLISNINVIVLELKGSETTF[hSer]CEYADETATIVEFLNRWITFSQSIISTLT
modifications: also: m73 after matriptase cleavage: Lys23 side-chain branch (cleavable peptide) cut, remnant not given here
B9: CMP-311, MMP2 cleaved molecule (ligand)
chain: APTSSSTKKTQLQLEHLLLDLQKILNGINNYKNPKLTR[Nle]L[hSer][Yn3]KF[Ygp][Nle]PKKATELKHLQCLEEELKPLEEVL[hSer]LAQSKNFHLRPRDLISNINVIVLELKGSETTF[hSer]CEYADETATIVEFLNRWITFSQSIISTLT
modifications: also: m77 after MMP2 cleavage: Lys23 side-chain branch (cleavable peptide) cut, remnant not given here
B10: CMP-314, Matriptase cleaved molecule (ligand)
chain: APTSSSTKKTQLQLEHLLLDLQKILNGINNYKNPKLTR[Nle]L[hSer]Y(9x polyethylene glycol‑azido)KFY(8x polyethylene glycol‑amino)[Nle]PKKATELKHLQCLEEELKPLEEVL[hSer]LAQSKNFHLRPRDLISNINVIVLELKGSETTF[hSer]CEYADETATIVEFLNRWITFSQSIISTLT
modifications: also: matriptase cleavage product, not given here as a sequence, Lys23 side-chain attachment remnant unknown
B11: CMP-314, MMP2 cleaved molecule (ligand)
chain: APTSSSTKKTQLQLEHLLLDLQKILNGINNYKNPKLTR[Nle]L[hSer]Y(9x polyethylene glycol‑azido)KFY(8x polyethylene glycol‑amino)[Nle]PKKATELKHLQCLEEELKPLEEVL[hSer]LAQSKNFHLRPRDLISNINVIVLELKGSETTF[hSer]CEYADETATIVEFLNRWITFSQSIISTLT
modifications: also: K23 side chain attached to another sequence, m85 after MMP2 cleavage, product not given here as a sequence
B12: CMP-313, MMP2 cleaved molecule (ligand)
chain: APTSSSTKKTQLQLEHLLLDLQKILNGINNYKNPKLTR[Nle]L[hSer][Yn3]KF[Ygp][Nle]PKKATELKHLQCLEEELKPLEEVL[hSer]LAQSKNFHLRPRDLISNINVIVLELKGSETTF[hSer]CEYADETATIVEFLNRWITFSQSIISTLT
modifications: also: m81 after MMP2 cleavage: Lys23 side-chain branch (cleavable peptide) cut, remnant not given here
B13: CMP-313, Matriptase cleaved molecule (ligand)
chain: APTSSSTKKTQLQLEHLLLDLQKILNGINNYKNPKLTR[Nle]L[hSer][Yn3]KF[Ygp][Nle]PKKATELKHLQCLEEELKPLEEVL[hSer]LAQSKNFHLRPRDLISNINVIVLELKGSETTF[hSer]CEYADETATIVEFLNRWITFSQSIISTLT
modifications: also: m81 after matriptase cleavage: Lys23 side-chain branch (cleavable peptide) cut, remnant not given here

target: T1, IL-2 receptor βγ complex; assay: cell-based or functional assay

Binder | Average EC50, pSTAT5 Assay in NK cells
B1 | 65 pM
B2 | 0.512 nM
B3 | 0.369 nM
B4 | 4.07 nM
B5 | 6.79 nM
B6 | 81 pM
B7 | 0.548 nM
B8 | 6.9 nM
B9 | 73 pM
B10 | 0.117 nM
B11 | 40 pM
B12 | 35 pM
B13 | 0.714 nM
